Target: EGFP-PKM2 (UniProt P14618 1-531)
Experiment: MST

Chain of EGFP-PKM2 (P14618 whole entry): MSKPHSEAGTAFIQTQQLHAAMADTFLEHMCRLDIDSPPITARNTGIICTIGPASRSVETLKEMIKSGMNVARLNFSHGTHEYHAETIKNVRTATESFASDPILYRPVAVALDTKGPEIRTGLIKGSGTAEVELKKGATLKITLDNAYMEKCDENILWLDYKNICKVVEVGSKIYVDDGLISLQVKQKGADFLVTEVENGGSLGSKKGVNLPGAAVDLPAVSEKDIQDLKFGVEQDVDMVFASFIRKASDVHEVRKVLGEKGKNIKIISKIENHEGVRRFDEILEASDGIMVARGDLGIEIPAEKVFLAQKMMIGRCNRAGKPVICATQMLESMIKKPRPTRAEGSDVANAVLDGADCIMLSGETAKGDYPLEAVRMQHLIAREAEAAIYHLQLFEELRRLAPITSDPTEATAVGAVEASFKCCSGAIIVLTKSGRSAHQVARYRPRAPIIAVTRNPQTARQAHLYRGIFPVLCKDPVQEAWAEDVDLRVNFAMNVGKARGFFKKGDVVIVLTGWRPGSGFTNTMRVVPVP

Kd: 0.001 pM
B1: Annexin A5 (sc-4252, Santa Cruz Biotechnology) (natural protein)
chain: MAQVLRGTVTDFPGFDERADAETLRKAMKGLGTDEESILTLLTSRSNAQRQEISAAFKTLFGRDLLDDLKSELTGKFEKLIVALMKPSRLYDAYELKHALKGAGTNEKVLTEIIASRTPEELRAIKQVYEEEYGSSLEDDVVGDTSGYYQRMLVVLLQANRDPDAGIDEAQVEQDAQALFQAGELKWGTDEEKFITIFGTRSVSHLRKVFDKYMTISGFQIEETIDRETSGNLEQLLLAVVKSIRSIPAYLAETLYYAMKGAGTDDHTLIRVMVSRSEIDLFNIRKEFRKNFATSLYSMIKGDTSGDYKKALLLLCGEDD

— PMC7369618 (Redox Biology, 2020)
